Experimental findings from patent publication US20140194320, “METHOD FOR PREPARING NUCLEIC ACID APTAMER” (TAGCYX BITOECNOLOGIES, published 2014) are described below.

Data set [1] concerns the target T1, NF-κB p50 (rhNF-κB) (Homo sapiens, UniProt P19838 P19838:1-433). Kind of data set: SPR; PBS, 0.05% Nonidet P-40, 2.5 mM DTT, 25 C; immobilized by hybridization to biotinylated probe. The settings on record: tags: Promega; chain copies: 2 (inferred); hairpin stem with non-Watson-Crick G-A and G-T pairs. The method, then: (§1) The binding ability of each NF-κB p50-binding DNA aptamer clone for NF-κB p50 was determined by the surface plasmon resonance (SPR) method using BIACORE 3000 (GE Healthcare Japan Corp.). The assay in the SPR method was conducted with a temperature set to 25° C. using buffer A as a running buffer. Specifically, DNA probes (21 mer) (SEQ ID NO: 30) each having a nucleotide sequence complementary to the 3′-terminal region of each clone and having a biotinylated base at the 5′ end were immobilized onto a streptavidin-coated sensor chip (SA chip). Then, 60 μL (corresponding to 12 minutes) of a solution of each single-stranded DNA clone (95 mer) diluted to 50 nM with PBS was injected thereto at a flow rate of 5 μL/min to immobilize the clone onto the SA chip through hybridization with the probe.

The target of data set [2] is T1, NF-κB p50 (rhNF-κB). Kind of data set: SPR; PBS, 0.05% Nonidet P-40, 2.5 mM DTT, 25 C; natural consensus hairpin control. The settings on record: tags: Promega, chain copies: 2 (inferred), known NF-κB consensus duplex strands linked via AAAA tetraloop. The method, then:
as §1
(§2) Single-stranded DNA variants (68 mer, SEQ ID NOs: 31, 32, and 33; free from a sequence comprising the 5′-terminal primer sequence region) of each NF-κB p50-binding DNA aptamer clone were analyzed for their binding ability by the same SPR method as in Example 2. […] These single-stranded DNA variants used in binding analysis were prepared by chemical synthesis and gel purification. In the diagram, Cont-68 (SEQ ID NO: 34) corresponds to a single-stranded DNA in which the strands of a double-stranded DNA comprising a known NF-κB p50-binding consensus sequence were linked via adenine tetraloop (AAAA). […]

Data set [3] deals with T1, NF-κB p50 (rhNF-κB). Kind of data set: SPR; PBS, 0.05% Nonidet P-40, 2.5 mM DTT, 25 C. The settings on record: tags: Promega, chain copies: 2 (inferred). The method, then:
as §1
Single-stranded DNA variants (68 mer, SEQ ID NOs: 31, 32, and 33; free from a sequence comprising the 5′-terminal primer sequence region) of each NF-κB p50-binding DNA aptamer clone were analyzed for their binding ability by the same SPR method as in Example 2. […] These single-stranded DNA variants used in binding analysis were prepared by chemical synthesis and gel purification. In the diagram, Cont-68 (SEQ ID NO: 34) corresponds to a single-stranded DNA in which the strands of a double-stranded DNA comprising a known NF-κB p50-binding consensus sequence were linked via adenine tetraloop (AAAA). For SPR analysis, each of these single-stranded DNAs was immobilized onto the SA chip through hybridization with probes by the injection of 20 μL (corresponding to 1 minute) of a solution of each DNA fragment (68 mer) diluted to 250 nM with PBS at a flow rate of 20 μL/min.
For orientation: SPR reads the build-up and loss of mass on a sensor chip optically.

In data set [4] the target is T1, NF-κB p50 (rhNF-κB). Put plainly: SPR; PBS, 0.05% Nonidet P-40, 2.5 mM DTT, 25 C; Example 3 text gives range 5.7 to 8.7. The note with it: tags: Promega; chain copies: 2 (inferred); hairpin stem with two G-T and three G-A pairs. The method, then:
as §1, §2

In data set [5] the target is T1, NF-κB p50 (rhNF-κB). Put plainly: SPR; PBS, 0.05% Nonidet P-40, 2.5 mM DTT, 25 C; dissociation rate 10 times larger than 5R01-68. The settings on record: tags: Promega; chain copies: 2 (inferred); hairpin.
The target of data set [6] is T1, NF-κB p50 (rhNF-κB). Kind of data set: SPR; PBS, 0.05% Nonidet P-40, 2.5 mM DTT, 25 C; Example 2 text gives range 2.1 to 3.5 pM. The settings on record: tags: Promega; chain copies: 2 (inferred); hairpin stem with non-Watson-Crick pairs; 95 mer. The method, then: as §1

T1 sequence (P19838 1-433, one chain of several): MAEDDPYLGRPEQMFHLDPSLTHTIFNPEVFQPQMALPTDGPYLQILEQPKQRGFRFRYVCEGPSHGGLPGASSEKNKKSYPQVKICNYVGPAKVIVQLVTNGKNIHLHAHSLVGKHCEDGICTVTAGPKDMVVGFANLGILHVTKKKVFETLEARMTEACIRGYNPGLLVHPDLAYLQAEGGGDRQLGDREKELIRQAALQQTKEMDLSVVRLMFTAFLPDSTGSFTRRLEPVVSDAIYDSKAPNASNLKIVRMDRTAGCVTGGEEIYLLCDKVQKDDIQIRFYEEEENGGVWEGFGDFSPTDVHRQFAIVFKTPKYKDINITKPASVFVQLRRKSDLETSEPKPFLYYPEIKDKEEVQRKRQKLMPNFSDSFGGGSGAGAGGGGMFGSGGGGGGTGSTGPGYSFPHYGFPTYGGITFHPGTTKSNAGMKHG

B1: 5R01 (ssDNA)
DNA: GTAGTCACTAATCCGTTCGAGTCATGCCGGGGAATCACTGTAGGGACATTACGCAGGGGATTCACTAGGAGTGGACTGATACGATCGATTGACAG
As for B1, in the data set with NF-κB p50 (rhNF-κB) [1], the Kd (as a rule, the concentration at which binding is half-saturated) stood at 3.5 pM.

B2: Cont-68 (ssDNA)
DNA: CCTTGAAGGGATTTCCCTCCAAAAGGAGGGAAATCCCTTCAAGGTGGACTGATACGATCGATTGACAG
As for B2, binding with NF-κB p50 (rhNF-κB) [2] was characterised by a dissociation constant (Kd) of 3.5 nM.

B3: 5R05 (ssDNA)
DNA: GTAGTCACTAATCCGTTCGAGTCATGCTGTAACGTAGGGGTTTCACCAACACTGCGGGAAACACTGAAGCGTGGACTGATACGATCGATTGACAG
B3 came in with a Kd with NF-κB p50 (rhNF-κB) [3] (hairpin stem with non-Watson-Crick pairs, 95 mer) of 2.1 pM. That is a picomolar value.

B4: 5R05-68 (ssDNA)
DNA: TGTAACGTAGGGGTTTCACCAACACTGCGGGAAACACTGAAGCGTGGACTGATACGATCGATTGACAG
Take B4: binding in the data set with NF-κB p50 (rhNF-κB) [3] (hairpin) was put at a Kd of 7.2 pM.

B5: 5R01-68 (ssDNA)
DNA: CGGGGAATCACTGTAGGGACATTACGCAGGGGATTCACTAGGAGTGGACTGATACGATCGATTGACAG
The molecule B5 showed an equilibrium dissociation constant (Kd) with NF-κB p50 (rhNF-κB) [4] of 5.4 pM.

B6: 5R01mut-68 (ssDNA)
DNA: CGGGGAATCCCCGTAGGGACATTACGCCGGGGATTCCCCAGGAGTGGACTGATACGATCGATTGACAG
Regarding B6, the Kd with NF-κB p50 (rhNF-κB) [5] is 0.14 nM.

B7: 5R14 (ssDNA)
DNA: GTAGTCACTAATCCGTTCGAGTCATGCCACGGGGTTTCACTGTTTCGTAGATTGCATAAGGGGAAACACTGTGGACTGATACGATCGATTGACAG
Molecule B7 yielded a Kd in the data set with NF-κB p50 (rhNF-κB) [6] of 6.6 pM. This counts as picomolar.

B8: 5R14-68 (ssDNA)
DNA: CACGGGGTTTCACTGTTTCGTAGATTGCATAAGGGGAAACACTGTGGACTGATACGATCGATTGACAG
The molecule B8 registered a Kd with NF-κB p50 (rhNF-κB) [3] (hairpin) of 8.7 pM.
